Experimental data: paper PMC8556260

What was measured:
[1] = target: PIR91 ribosome-bound nascent chain (full-length PIR RNC, wild type) (UniProt O88900); assay: cross-linking; titration of resuspended PIR91 RNCs with DnaK/DnaJ/GrpE (5:1:2, up to 50/10/25 µM), ADP, 50 mM KCl, 5 mM Mg2+, then EDC 80 mM, 30 min, 30 °C; fraction cross-linked to DnaK fitted to a two-state model; apparent
[2] = target: PIR91 ribosome-bound nascent chain (full-length PIR RNC, wild type) (UniProt O88900); assay: cross-linking; titration of resuspended PIR91 RNCs with TF (up to 40 µM), 10 min on ice, then EDC 80 mM, 30 min, 30 °C; standard resuspension buffer, 10 mM Mg(OAc)2, pH 7.0; fraction cross-linked fitted to a two-state model; apparent

| Kd [1] | Kd [2] | Substance |
| --- | --- | --- |
| 109 µM |  | E. coli Hsp70 (DnaK), purified, ADP-bound, added as K/J/E mixture (from UniProt P0A6Y8 1-638) (natural protein) |
|  | 3.8 µM | Trigger factor (TF), purified wild type (from UniProt P0A850 1-432) (natural protein) |
